Target: Fibronectin (FN) from human plasma (human) (UniProt P02751)
Chain of UniProt P02751 (P02751 32-2477): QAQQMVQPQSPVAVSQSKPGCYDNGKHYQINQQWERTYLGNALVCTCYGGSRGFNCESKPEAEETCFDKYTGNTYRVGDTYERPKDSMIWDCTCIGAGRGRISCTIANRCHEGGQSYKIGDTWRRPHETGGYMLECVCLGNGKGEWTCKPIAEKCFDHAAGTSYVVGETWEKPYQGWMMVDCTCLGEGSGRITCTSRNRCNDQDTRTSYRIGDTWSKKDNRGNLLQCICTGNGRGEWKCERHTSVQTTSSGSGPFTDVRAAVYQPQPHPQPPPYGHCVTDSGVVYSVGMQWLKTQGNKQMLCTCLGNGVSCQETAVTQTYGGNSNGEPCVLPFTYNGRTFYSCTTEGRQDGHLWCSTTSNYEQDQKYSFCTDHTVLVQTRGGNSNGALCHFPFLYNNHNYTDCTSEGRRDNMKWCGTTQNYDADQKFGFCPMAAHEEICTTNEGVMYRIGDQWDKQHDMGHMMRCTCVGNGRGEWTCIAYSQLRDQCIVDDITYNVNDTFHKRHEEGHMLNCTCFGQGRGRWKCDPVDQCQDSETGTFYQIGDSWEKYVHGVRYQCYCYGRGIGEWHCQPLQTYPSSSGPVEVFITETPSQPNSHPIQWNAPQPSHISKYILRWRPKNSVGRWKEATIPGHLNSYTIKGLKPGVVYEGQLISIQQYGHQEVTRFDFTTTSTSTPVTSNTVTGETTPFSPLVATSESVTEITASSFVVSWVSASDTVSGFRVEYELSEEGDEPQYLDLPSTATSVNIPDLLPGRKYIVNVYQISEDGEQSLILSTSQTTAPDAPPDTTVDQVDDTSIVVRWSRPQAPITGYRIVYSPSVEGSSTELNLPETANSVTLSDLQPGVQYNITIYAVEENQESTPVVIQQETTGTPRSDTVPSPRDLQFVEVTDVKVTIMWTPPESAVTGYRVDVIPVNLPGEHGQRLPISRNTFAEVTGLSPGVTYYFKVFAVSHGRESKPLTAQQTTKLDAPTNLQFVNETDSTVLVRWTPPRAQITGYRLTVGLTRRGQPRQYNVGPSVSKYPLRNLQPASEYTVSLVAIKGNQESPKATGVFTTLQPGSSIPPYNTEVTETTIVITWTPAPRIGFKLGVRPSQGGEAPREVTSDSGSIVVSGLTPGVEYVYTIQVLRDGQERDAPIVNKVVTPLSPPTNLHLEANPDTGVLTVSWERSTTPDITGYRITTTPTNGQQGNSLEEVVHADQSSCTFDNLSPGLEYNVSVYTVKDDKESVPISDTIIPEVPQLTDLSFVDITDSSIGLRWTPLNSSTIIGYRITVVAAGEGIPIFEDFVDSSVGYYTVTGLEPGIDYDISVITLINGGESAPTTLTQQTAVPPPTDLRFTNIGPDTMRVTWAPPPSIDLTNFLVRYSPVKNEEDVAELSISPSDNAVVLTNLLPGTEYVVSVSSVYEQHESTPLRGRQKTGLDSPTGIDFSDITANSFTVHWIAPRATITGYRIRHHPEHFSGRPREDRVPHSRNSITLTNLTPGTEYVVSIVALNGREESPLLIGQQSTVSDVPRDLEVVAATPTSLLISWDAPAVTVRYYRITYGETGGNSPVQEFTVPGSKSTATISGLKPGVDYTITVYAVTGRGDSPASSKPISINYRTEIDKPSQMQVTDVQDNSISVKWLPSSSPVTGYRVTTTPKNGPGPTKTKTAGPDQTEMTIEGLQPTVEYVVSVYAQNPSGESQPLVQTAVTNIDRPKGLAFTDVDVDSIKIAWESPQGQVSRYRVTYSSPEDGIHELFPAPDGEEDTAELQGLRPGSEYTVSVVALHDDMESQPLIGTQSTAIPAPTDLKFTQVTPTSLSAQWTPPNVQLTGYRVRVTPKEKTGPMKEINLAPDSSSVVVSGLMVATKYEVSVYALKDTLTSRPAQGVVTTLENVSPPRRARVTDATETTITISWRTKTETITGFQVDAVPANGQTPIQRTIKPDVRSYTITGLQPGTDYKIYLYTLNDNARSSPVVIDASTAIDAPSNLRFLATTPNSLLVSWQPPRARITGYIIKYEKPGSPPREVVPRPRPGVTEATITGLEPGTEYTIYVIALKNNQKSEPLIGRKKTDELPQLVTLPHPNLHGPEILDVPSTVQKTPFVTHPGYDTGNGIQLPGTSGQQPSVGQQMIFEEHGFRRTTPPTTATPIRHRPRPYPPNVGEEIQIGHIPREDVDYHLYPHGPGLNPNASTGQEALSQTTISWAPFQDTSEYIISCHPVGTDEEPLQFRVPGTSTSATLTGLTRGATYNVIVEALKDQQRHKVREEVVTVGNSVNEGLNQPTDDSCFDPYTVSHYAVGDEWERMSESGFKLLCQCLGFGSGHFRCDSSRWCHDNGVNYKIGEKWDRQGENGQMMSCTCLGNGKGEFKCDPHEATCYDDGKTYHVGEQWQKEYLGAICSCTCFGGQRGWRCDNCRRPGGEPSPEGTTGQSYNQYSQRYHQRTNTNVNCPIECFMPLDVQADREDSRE

Which fold more bead attachment on FN-coated GO than on FN-coated RGO does the source give for “Recombinant human αVβ3 integrin (from UniProt P06756;P05106) (receptor)” here?
Its fold more bead attachment on FN-coated GO than on FN-coated RGO is 5 fold.

— article doi:10.1101/2020.02.11.944678
